Results reported in publication PMC6615629, “Hsp70-nucleotide exchange factor (NEF) Fes1 has non-NEF roles in degradation of gluconeogenic enzymes and cell wall integrity” (PLoS Genetics, 2019).

B1: His6-Fbp1 (enzyme, yeast (S. cerevisiae), UniProt P09201 1-348, looked up)
chain: MPTLVNGPRRDSTEGFDTDIITLPRFIIEHQKQFKNATGDFTLVLNALQFAFKFVSHTIRRAELVNLVGLAGASNFTGDQQKKLDVLGDEIFINAMRASGIIKVLVSEEQEDLIVFPTNTGSYAVCCDPIDGSSNLDAGVSVGTIASIFRLLPDSSGTINDVLRCGKEMVAACYAMYGSSTHLVLTLGDGVDGFTLDTNLGEFILTHPNLRIPPQKAIYSINEGNTLYWNETIRTFIEKVKQPQADNNNKPFSARYVGSMVADVHRTFLYGGLFAYPCDKKSPNGKLRLLYEAFPMAFLMEQAGGKAVNDRGERILDLVPSHIHDKSSIWLGSSGEIDKFLDHIGKSQ
notes: Fbp1, yeast gluconeogenic enzyme; the initiator methionine is present in the purified protein and is counted as residue 1; also called wild type His6-Fbp1; not shown: His6, N-terminal, kept

Key:
Test in all cases: pull-down; His6-Fbp1 (wild type or mutant) pulled down on Talon metal affinity resin; reactions with two or all three proteins; 6 μg each of His6-Fbp1 (1.6 μM), Hsp70 (0.9 μM) and GST-Fes1 (1.09 μM), with or without ATP, ADP or AMP (2.5 mM); 50 mM Tris-HCl pH 7.5, 150 mM NaCl, 2% glycerol, 5 mM MgCl2; 30 min at 4°C; washed with 5 mM imidazole, eluted with 250 mM imidazole; stained SDS-PAGE gels, bands quantified …
Conditions in all cases: both partners purified
Ssa1 = biological target: T1, Ssa1 (yeast (S. cerevisiae), UniProt P10591 1-642)
T1 construct: Ssa1, yeast cytosolic Hsp70; non-tagged; also called Hsp70; source: E. coli Rosetta 2(DE3), purified as described [51]

Ssa2 = biological target: T2, Ssa2 (yeast (S. cerevisiae), UniProt P10592 1-639)
T2 construct: Ssa2, yeast cytosolic Hsp70; non-tagged; also called Hsp70; source: E. coli Rosetta 2(DE3), purified as described [51]

His6-Fbp1 = biological target: B1

T2 sequence (P10592 whole entry): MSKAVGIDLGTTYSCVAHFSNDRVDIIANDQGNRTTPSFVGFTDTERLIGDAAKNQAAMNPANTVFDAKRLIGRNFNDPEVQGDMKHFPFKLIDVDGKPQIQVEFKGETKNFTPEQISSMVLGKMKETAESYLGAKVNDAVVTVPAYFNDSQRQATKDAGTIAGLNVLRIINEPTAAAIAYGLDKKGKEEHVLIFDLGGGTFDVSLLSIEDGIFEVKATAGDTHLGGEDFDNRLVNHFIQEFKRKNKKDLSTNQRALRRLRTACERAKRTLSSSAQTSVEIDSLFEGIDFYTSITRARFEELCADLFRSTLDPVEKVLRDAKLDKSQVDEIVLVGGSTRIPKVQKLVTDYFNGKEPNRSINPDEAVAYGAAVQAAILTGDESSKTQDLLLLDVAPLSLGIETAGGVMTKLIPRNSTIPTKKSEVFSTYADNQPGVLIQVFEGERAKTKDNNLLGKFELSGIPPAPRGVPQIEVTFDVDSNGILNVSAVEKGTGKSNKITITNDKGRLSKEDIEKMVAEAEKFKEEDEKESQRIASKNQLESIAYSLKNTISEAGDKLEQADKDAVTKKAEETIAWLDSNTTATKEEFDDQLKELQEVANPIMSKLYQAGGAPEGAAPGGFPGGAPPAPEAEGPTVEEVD
T1 sequence (P10591 whole entry): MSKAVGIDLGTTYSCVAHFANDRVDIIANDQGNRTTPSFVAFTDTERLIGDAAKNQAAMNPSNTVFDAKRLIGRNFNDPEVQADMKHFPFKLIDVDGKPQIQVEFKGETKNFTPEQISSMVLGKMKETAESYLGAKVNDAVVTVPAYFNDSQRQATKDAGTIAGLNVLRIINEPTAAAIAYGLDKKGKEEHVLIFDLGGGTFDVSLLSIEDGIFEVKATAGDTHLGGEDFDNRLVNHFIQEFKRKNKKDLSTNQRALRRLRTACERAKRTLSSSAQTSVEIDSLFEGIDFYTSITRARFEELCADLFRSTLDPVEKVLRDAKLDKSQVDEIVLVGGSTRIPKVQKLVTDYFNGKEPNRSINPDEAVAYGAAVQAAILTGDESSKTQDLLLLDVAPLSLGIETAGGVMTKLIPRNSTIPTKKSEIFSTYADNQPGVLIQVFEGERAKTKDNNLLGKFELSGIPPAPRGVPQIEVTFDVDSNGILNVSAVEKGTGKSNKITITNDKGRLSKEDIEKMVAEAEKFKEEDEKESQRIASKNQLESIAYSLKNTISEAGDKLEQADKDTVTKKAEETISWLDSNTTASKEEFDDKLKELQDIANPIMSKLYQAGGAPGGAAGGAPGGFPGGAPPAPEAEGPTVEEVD

| Binder | binding result (Ssa1) | binding result (Ssa2) | other results |
| --- | --- | --- | --- |
| His6-Fbp1 P2A (enzyme, yeast (S. cerevisiae), UniProt P09201 1-348, looked up, Fbp1, yeast gluconeogenic enzyme, P2A; the initiator methionine is counted as residue 1; source: E. coli expression, purified; not shown: His6, N-terminal, kept) MATLVNGPRRDSTEGFDTDIITLPRFIIEHQKQFKNATGDFTLVLNALQFAFKFVSHTIRRAELVNLVGLAGASNFTGDQQKKLDVLGDEIFINAMRASGIIKVLVSEEQEDLIVFPTNTGSYAVCCDPIDGSSNLDAGVSVGTIASIFRLLPDSSGTINDVLRCGKEMVAACYAMYGSSTHLVLTLGDGVDGFTLDTNLGEFILTHPNLRIPPQKAIYSINEGNTLYWNETIRTFIEKVKQPQADNNNKPFSARYVGSMVADVHRTFLYGGLFAYPCDKKSPNGKLRLLYEAFPMAFLMEQAGGKAVNDRGERILDLVPSHIHDKSSIWLGSSGEIDKFLDHIGKSQ | binds | binds | – |
| His6-Fbp1^P2A,S12A,T13A (enzyme, yeast (S. cerevisiae), UniProt P09201 1-348, looked up, Fbp1, yeast gluconeogenic enzyme, P2A,S12A,T13A; the initiator methionine is counted as residue 1; source: E. coli expression, purified; not shown: His6, N-terminal, kept) MATLVNGPRRDAAEGFDTDIITLPRFIIEHQKQFKNATGDFTLVLNALQFAFKFVSHTIRRAELVNLVGLAGASNFTGDQQKKLDVLGDEIFINAMRASGIIKVLVSEEQEDLIVFPTNTGSYAVCCDPIDGSSNLDAGVSVGTIASIFRLLPDSSGTINDVLRCGKEMVAACYAMYGSSTHLVLTLGDGVDGFTLDTNLGEFILTHPNLRIPPQKAIYSINEGNTLYWNETIRTFIEKVKQPQADNNNKPFSARYVGSMVADVHRTFLYGGLFAYPCDKKSPNGKLRLLYEAFPMAFLMEQAGGKAVNDRGERILDLVPSHIHDKSSIWLGSSGEIDKFLDHIGKSQ | binds | binds | – |
| GST-Fes1^A79R,R195A (natural protein, yeast (S. cerevisiae), UniProt P38260 1-290, looked up, Fes1, yeast Hsp70 nucleotide exchange factor, double mutant A79R,R195A; also called Fes1RA; RA; source: E. coli expression, purified; not shown: GST, N-terminal, kept) MEKLLQWSIANSQGDKEAMARAGQPDPKLLQQLFGGGGPDDPTLMKESMAVIMNPEVDLETKLVAFDNFEMLIENLDNRNNIENLKLWEPLLDVLVQTKDEELRAAALSIIGTAVQNNLDSQNNFMKYDNGLRSLIEIASDKTKPLDVRTKAFYALSNLIRNHKDISEKFFKLNGLDCIAPVLSDNTAKPKLKMAAIALLTAYLSSVKIDENIISVLRKDGVIESTIECLSDESNLNIIDRVLSFLSHLISSGIKFNEQELHKLNEGYKHIEPLKDRLNEDDYLAVKYVL | – | – | ratio of amounts Fes1^A79R,R195A/Ssa1 pulled down by Fbp1, no nucleotide (His6-Fbp1): 1.7; ratio of amounts Fes1^A79R,R195A/Ssa1 pulled down by Fbp1, with ADP (His6-Fbp1): 5; ratio of amounts Fes1^A79R,R195A/Ssa1 pulled down by Fbp1, with AMP (His6-Fbp1): 3.3; ratio of amounts Fes1^A79R,R195A/Ssa1 pulled down by Fbp1, with ATP (His6-Fbp1): 6.4; ratio of amounts Fes1^A79R,R195A/Ssa2 pulled down by Fbp1, no nucleotide (His6-Fbp1): 2.4; ratio of amounts Fes1^A79R,R195A/Ssa2 pulled down by Fbp1, with ADP (His6-Fbp1): 4.5; ratio of amounts Fes1^A79R,R195A/Ssa2 pulled down by Fbp1, with AMP (His6-Fbp1): 1.9; ratio of amounts Fes1^A79R,R195A/Ssa2 pulled down by Fbp1, with ATP (His6-Fbp1): 4.3 |
| B1 | binds | binds | – |
| His6-Fbp1ΔP2 (enzyme, yeast (S. cerevisiae), UniProt P09201 1-348, looked up, Fbp1, yeast gluconeogenic enzyme, proline 2 deleted; the initiator methionine is counted as residue 1; also called Fbp1P2Δ; source: E. coli expression, purified; not shown: His6, N-terminal, kept) MTLVNGPRRDSTEGFDTDIITLPRFIIEHQKQFKNATGDFTLVLNALQFAFKFVSHTIRRAELVNLVGLAGASNFTGDQQKKLDVLGDEIFINAMRASGIIKVLVSEEQEDLIVFPTNTGSYAVCCDPIDGSSNLDAGVSVGTIASIFRLLPDSSGTINDVLRCGKEMVAACYAMYGSSTHLVLTLGDGVDGFTLDTNLGEFILTHPNLRIPPQKAIYSINEGNTLYWNETIRTFIEKVKQPQADNNNKPFSARYVGSMVADVHRTFLYGGLFAYPCDKKSPNGKLRLLYEAFPMAFLMEQAGGKAVNDRGERILDLVPSHIHDKSSIWLGSSGEIDKFLDHIGKSQ | binds | binds | – |
